Read-outs that look alike come from different tables or passages of the source.
Tests used:
Test in all cases: FRET or BRET
NaV1.4-EYFP [1] = target: NaV1.4-EYFP (UniProt P15390)
NaV1.4-EYFP [2] = target: NaV1.4-EYFP (UniProt P15390); remark: listed apart in the source
NaV1.4_(IQ/AA)-EYFP = NaV1.4_(IQ/AA)-EYFP (UniProt P15390)
NaV1.4-EYFP [3] = target: NaV1.4-EYFP (UniProt P15390); remark: listed apart in the source
NaV1.4-EYFP [4] = target: NaV1.4-EYFP (UniProt P15390); remark: listed apart in the source
NaV1.4-EYFP [5] = target: NaV1.4-EYFP (UniProt P15390); remark: listed apart in the source

FRET efficiency (NaV1.4-EYFP [1]): 25.4% | FRET efficiency (NaV1.4-EYFP [2]): 8.2% | FRET ratio (NaV1.4-EYFP [2]): > 1 | FRET ratio (NaV1.4_(IQ/AA)-EYFP): < 1 | FRET efficiency (NaV1.4-EYFP [3]): 22.7% | FRET efficiency (NaV1.4-EYFP [4]): 9.9% | FRET efficiency (NaV1.4-EYFP [5]): 10.3% | FRET ratio (NaV1.4-EYFP [5]): 2
Substance: ECFP-CaM (from UniProt P0DP23 1-149) (natural protein)
